Laboratory results taken from IntAct's records for PubMed 27150041.

Target: smu2_caeel smu-2 (UniProt Q9N4U5)
Sequence (Q9N4U5 whole entry): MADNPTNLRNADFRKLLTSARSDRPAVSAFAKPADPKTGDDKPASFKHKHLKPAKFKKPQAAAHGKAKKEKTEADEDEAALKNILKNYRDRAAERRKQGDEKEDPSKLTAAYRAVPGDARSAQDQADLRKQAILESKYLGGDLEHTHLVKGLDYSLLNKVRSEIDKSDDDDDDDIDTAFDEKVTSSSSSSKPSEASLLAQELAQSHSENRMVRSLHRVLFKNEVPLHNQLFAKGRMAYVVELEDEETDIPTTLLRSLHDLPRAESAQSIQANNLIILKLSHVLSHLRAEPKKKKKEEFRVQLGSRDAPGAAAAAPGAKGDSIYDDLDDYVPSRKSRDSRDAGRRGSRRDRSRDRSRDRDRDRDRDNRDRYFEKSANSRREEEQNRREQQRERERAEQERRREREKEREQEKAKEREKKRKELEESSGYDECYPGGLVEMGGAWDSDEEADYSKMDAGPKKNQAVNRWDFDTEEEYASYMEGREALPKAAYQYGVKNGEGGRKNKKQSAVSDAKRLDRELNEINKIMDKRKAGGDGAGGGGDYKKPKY

Smu-1 suppressor of mec-8 and unc-52 protein (Caenorhabditis elegans), G5EEG7 L96R, sequence (G5EEG7 whole entry L96R): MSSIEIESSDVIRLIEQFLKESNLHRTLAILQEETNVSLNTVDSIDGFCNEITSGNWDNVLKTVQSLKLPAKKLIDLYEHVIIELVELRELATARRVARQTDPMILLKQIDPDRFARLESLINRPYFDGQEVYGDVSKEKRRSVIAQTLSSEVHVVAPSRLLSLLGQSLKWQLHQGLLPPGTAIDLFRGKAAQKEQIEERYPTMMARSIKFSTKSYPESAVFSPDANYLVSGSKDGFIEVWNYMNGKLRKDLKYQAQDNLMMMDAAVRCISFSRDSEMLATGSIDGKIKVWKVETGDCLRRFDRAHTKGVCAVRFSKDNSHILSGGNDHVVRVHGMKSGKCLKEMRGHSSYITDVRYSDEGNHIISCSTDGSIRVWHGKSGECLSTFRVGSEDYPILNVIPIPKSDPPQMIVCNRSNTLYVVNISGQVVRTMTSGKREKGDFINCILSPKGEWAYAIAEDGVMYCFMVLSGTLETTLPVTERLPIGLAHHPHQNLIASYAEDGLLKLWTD

effect of a mutation on the interaction: disrupting interaction strength
Substance: Smu-1 suppressor of mec-8 and unc-52 protein (Caenorhabditis elegans), G5EEG7 L96R
